The text below walks through data of patent publication US20230210940A1 (published 2023).

No end group written: not given here. *: point of attachment. FITC = O=C1OC2(c3ccc(O)cc3Oc3cc(O)ccc32)c2ccc(NC(=S)*)cc21; Ahx = NCCCCCC(=O)O

For the assay, the target named is T1, CD13 (human, UniProt P15144 2-967).
T1 construct: whole, on cells; Endogenous CD13 on the cell membrane, detected with PE-labeled anti-human CD13 antibody clone WM-15; also called human CD13
Kind of assay: Example 2 incubated with HT-1080 cells, anti-FITC immunoprecipitation, Western blot with anti-CD13 antibody WM-15. As for the experimental part:
Example 2 (80 μg/400 μL) reacted to HT-1080 cells (40 million cells) at 4° C. for 2 hours. The cells were then washed with PBS, and centrifuged. The centrifuged cells were dissolved in 1,000 μL of IP Lysis/Wash buffer (Thermo Fisher Scientific) with Halt Protease & Phosphatase inhibitor Single-Use Cocktail, ETDA-Free (Thermo Fisher Scientific) (10 μL) at 4° C. for 5 minutes. It was centrifuged at 4° C. for 10 minutes and the supernatant was collected. The supernatant was adjusted to be 1 mg in amount of protein and 80 μL of A/G agarose was added to it. The mixture was stirred at 4° C. for 1 hour and then centrifuged for 1 minute. Thus, a pre-treatment solution was obtained. 10 μg of IgG Fraction Monoclonal Mouse Anti-Fluorescein (FITC) (Jackson ImmunoResearch) or 10 μg of Mouse IgG Isotype Control (Thermo Fisher Scientific) was each added to the pre-treatment solution (1 mg/600 μL), and the mixtures were shaken at 4° C. overnight. Subsequently, 20 μL of A/G agarose was added and the mixtures were shaken at 4° C. for 2 hours. The mixtures were washed three times with the wash buffer described above and 20 μL of 2×Non-reducing Lane Marker Sample Buffer (Thermo Fisher Scientific) was added to the A/G agaroses. […]
The 10% solution used in immunoprecipitation was loaded to the left lane of FIG. 3. […] CD13 was not detected on the right lane, but CD 13 was detected on the center lane.

T1 sequence (P15144 2-967): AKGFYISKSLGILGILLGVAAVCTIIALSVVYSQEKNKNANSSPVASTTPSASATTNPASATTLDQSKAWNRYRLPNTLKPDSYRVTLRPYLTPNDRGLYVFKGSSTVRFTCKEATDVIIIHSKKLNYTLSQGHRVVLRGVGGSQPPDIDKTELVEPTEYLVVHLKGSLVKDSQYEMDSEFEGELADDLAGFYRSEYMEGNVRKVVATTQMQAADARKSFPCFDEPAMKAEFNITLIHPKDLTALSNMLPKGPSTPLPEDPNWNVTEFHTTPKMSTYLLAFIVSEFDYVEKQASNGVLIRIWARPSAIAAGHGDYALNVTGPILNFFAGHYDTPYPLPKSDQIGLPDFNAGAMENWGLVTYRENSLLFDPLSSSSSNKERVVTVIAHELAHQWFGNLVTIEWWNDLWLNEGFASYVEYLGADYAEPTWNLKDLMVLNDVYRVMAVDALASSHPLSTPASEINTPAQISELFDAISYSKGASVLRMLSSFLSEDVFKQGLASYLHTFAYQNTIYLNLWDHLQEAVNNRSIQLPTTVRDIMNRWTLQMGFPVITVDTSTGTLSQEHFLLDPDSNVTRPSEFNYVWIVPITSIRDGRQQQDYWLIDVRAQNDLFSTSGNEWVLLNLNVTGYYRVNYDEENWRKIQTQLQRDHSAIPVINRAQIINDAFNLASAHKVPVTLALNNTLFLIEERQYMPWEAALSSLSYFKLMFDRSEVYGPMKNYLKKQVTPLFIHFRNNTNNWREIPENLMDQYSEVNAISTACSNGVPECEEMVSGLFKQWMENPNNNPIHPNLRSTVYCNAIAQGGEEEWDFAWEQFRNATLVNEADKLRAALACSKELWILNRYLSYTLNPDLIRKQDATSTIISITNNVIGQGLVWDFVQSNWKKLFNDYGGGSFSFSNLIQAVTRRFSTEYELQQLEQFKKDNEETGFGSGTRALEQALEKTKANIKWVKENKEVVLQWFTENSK

For {FITC-Ahx}-KDNRGNLLQCVCTGNGRGEWKC (cysteine pairing not given here), the binding result is reported as “binds”.
